A short description of test [1]: Steryl glycoside hydrolysis in distilled biodiesel/water mixture (Example 5). In kind it is biochemical. The method, then: Steryl glycosidase activity is measured as follows: • a) Prepare a stock solution of steryl glycoside by dissolving 10 milligrams (mg) of steryl glycoside in 1 milliliter (ml) of a 3:1 mixture of tetrahydrofuran:water. • b) Add the steryl glycoside to a final concentration of 100 microgram per milliliter (μg/ml) in 1 ml of a reaction mixture containing 50 millimolar (mM) Phosphate buffer pH 6.5 and 5 μg of steryl glycosidase in an Eppendorf tube. • c) Place the reaction mixture on a shaker incubator and incubate at 80° C. for 4 h. • d) Extract the reaction mixture with 1 ml of ethyl acetate and evaporate to dryness under vacuum. • e) Re-dissolve the sample in 10 microliter (μl) of ethyl acetate • f) Analyze by thin layer chromatography (TLC) the presence of free sterols, generated as a result of steryl glycoside hydrolysis after the enzymatic treatment, using Hexane:Methanol 85:15 as running buffer and develop with ρ-anisaldehide • d) Alternatively, analyze 50 μl sample of the reaction mixture for the presence of glucose using an assay based on the Hexokinase/Glucose 6-P-dehydrogenase method: the glucose generated by steryl glycoside hydrolisis is converted by Hexokinase (or Glucokinase) into glucose 6-phosphate. Glucose 6-phosphate is further oxidized by Glucose 6-P dehydrogenase, simultaneously reducing NADP+ to NADPH. The NADPH generated is detected by fluorescence (λex: 338 nm, λem: 461 nm) and allows detection of glucose levels below 1 ppm. The assay can be adapted to microplates scale and detected in a Synergy microplate reader.
The following is an example of how to use a steryl glycosidase to remove steryl glycosides from a biodiesel mixture: • a) A 42.5 ml distilled biodiesel sample containing 100 ppm of steryl glycosides is mixed with 7.5 ml of a water solution containing 50 mM Phosphate buffer pH 6.5 and 300 μg of steryl glycosidase. […]

The nature of test [2]: Steryl glycoside hydrolysis in crude biodiesel (Example 6). The class given is biochemical. Conditions: about 70 ppm steryl glycosides, 8 mg enzyme, 80° C., in 3 h.

B1: TL: steryl glycosidase TL from T. litoralis (SEQ ID NO.: 17) (protein, listed as Thermococcus litoralis)
chain: FPEKFLFGTSTAAHQVEGDNRWNDWWYYEEIGKLPYKSGKACNHWGLYREDIELMAQLGYNAYRFSIEWSRLFPEEGKFNEDAFNRYREIIELLLEKGITPNVTLHHFTSPLWFMRKGGFLKEENLKYWEKYVDKAAELLKGVKLVATFNEPMVYVMMGYLTAYWPPFVKSPFKAFKVAANLLKAHAMAYDILHGNFDVGIVKNIPIMLPASNREKDIKAAQKADNLFNWNFLDAIWSGKYKGAFGTYKTPESDVDFIGINYYTASEVRHSWNPLKFFFDAKLADLSERKTDMGWSVYPKGIYEAIAKVSRYGKPMYITENGIATLEDEWRIEFIIQHLQYVHKALNDGFDLRGYFYWSFMDNYEWAEGFRPRFGLVEVDYTTFERRPRKSGYVYGEIAREKKIKDELLAKYGLPEL
Turning to B1, the “steryl glycoside hydrolysis compared with LacS” value in test [1] (Bio/water+ADMUL emulsions, data not shown) was “higher and faster hydrolysis”. Also, the steryl glycoside hydrolysis in test [1] (without the addition of any emulsifier, in 3 h, 80° C.) was ~100%. The “steryl glycoside hydrolysis in crude biodiesel” value in test [2] is on record as “could completely hydrolize steryl glycosides”.

B2: LacS: steryl glycosidase LacS from S. solfataricus (SEQ ID NO.: 2) (protein, listed as Sulfolobus solfataricus)
chain: MYSFPNSFRFGWSQAGFQSEMGTPGSEDPNTDWYKWVHDPENMAAGLVSGDLPENGPGYWGNYKTFHDNAQKMGLKIARLNVEWSRIFPNPLPRPQNFDESKQDVTEVEINENELKRLDEYANKDALNHYREIFKDLKSRGLYFILNMYHWPLPLWLHDPIRVRRGDFTGPSGWLSTRTVYEFARFSAYIAWKFDDLVDEYSTMNEPNVVGGLGYVGVKSGFPPGYLSFELSRRAMYNIIQAHARAYDGIKSVSKKPVGIIYANSSFQPLTDKDMEAVEMAENDNRWWFFDAIIRGEITRGNEKIVRDDLKGRLDWIGVNYYTRTVVKRTEKGYVSLGGYGHGCERNSVSLAGLPTSDFGWEFFPEGLYDVLTKYWNRYHLYMYVTENGIADDADYQRPYYLVSHVYQVHRAINSGADVRGYLHWSLADNYEWASGFSMRFGLLKVDYNTKRLYWRPSALVYREIATNGAITDEIEHLNSVPPVKPLRH
Consider B2, for which, in test [1] (distilled biodiesel/water, 80° C., with or without 5% ADMUL emulsifier), the “steryl glycoside hydrolysis, dependence on emulsifier” value is on record as “could only exhibit steryl glycoside hydrolisis when reactions were performed in the presence of ADMUL™”.

These data come from patent US10287521B2, “Enzymatic removal of steryl glycosides” (KECLON S.A., priority 2012, dated 2019).
